To fix the notation:
B1: Twa1 CTLH-CRA domain (58-190), wild type [mouse] / muskelin CTLH-CRA domain (205–735 Δ248–625) [rat] (parent)
chain 1: EHPMLTDMHDKLVLKGDFDACEELIEKAVNDGLFNQYISQQEYPSKDYLLRHCKYLIRKHRFEEKAQMDPLSALKYLQNDLYITVDHSDPEETKEFQLLASALFKSGSDFTALGFSDVDHTYAQRTQLFDTLVNFFPDSMTPPKGNLVDLITL
chain 2: SVDLETLDERIKIREMILKGQIQEAIALINSLHPELLDTNRYLYFHLQQQHLIELIRQRETEAALEFAQTQLAEQGEESRECLTEMERTLALLAFDSPEESPFGDLLHMMQRQKVWSEVNQAVLDYENRESTP

Our source for the Kd and screen value values is PMC13061415.

As usually defined, the Kd is a measure of binding affinity in units of concentration.

The first experiment covers variants of B1. In words: ITC. Conditions: with muskelin CTLH-CRA domain (205–735 Δ248–625) [rat]; 160 µM muskelin + 16 µM Twa1 mutants.
As for chain 2 A68G Q69R A73Q L83K E87K L90F F95Y F103V, the Kd worked out at 340 nM and the screen value was found to be 0.88.

The same experiment, now with this note: with muskelin CTLH-CRA domain (205–735 Δ248–625) [rat]; 160 µM muskelin + 16 µM Twa1 mutants; read off a plot.
For the variant chain 2 A68G Q69R A73Q L83K E87K L90F F95Y F103V, the screen value was -9.2 kcal/mol.
